# Values of other authors in patent US20120245089A1, “USE OF THE SPARC MICROENVIRONMENT SIGNATURE IN THE TREATMENT OF CANCER” (ABRAXIS BIOSCIENCE, LLC, priority 2009, published 2012).
# B1: SPARC: matrix-associated protein; exogenous or purified SPARC in cited studies (protein, UniProt P09486 18-303, looked up)
# SPARC: APQQEALPDETEVVEETVAEVTEVSVGANPVQVEVGEFDDGAEETEEEVVAENPCQNHHCKHGKVCELDENNTPMCVCQDPTSCPAPIGEFEKVCSNDNKTFDSSCHFFATKCTLEGTKKGHKLHLDYIGPCKYIPPCLDSELTEFPLRMRDWLKNVLVTLYERDEDNNLLTEKQKLRVKKIHENEKRLEAGDHPVELLARDFEKNYNMYIFPVHWQFGQLDQHPIDGYLSHTELAPLRAPLIPMEHCTTRFFETCDLDNDKYIALDEWAGCFGIKQKDIDKDLVI
# Key:
# [1] = test system: HOSE (human ovarian surface epithelial) and ovarian cancer cells; conditions: exogenous SPARC; concentration-dependent
# neuroblastoma tumor = conditions: purified SPARC; in vivo xenograft model
molecule,measurement,setting,value
B1,Proliferation of HOSE and ovarian cancer cells,[1],reduce the proliferation
same,Apoptosis in ovarian cancer cells,ovarian cancer cells,induces apoptosis
same,Angiogenesis and neuroblastoma tumor growth,neuroblastoma tumor,inhibit angio-gnesis and impair neuroblastoma tumor growth
